Experimental data reported in publication PMC9305336.

Legend:
[1] = target: recombinant His-tagged histone H3/H4 (human) (UniProt P68431); test: SEC-MALS; Enrich SEC 70 column in high salt HBS buffer (20 mM Hepes pH 7.5, 2 M NaCl, 1 mM TCEP, 5% glycerol); TSPYL5-NLD alone, H3/H4 alone (H3/H4 dimers to tetramer) and the coexpressed, co-purified complex
[2] = system: TSPYL5-NLD (Homo sapiens); test: EMSA; conditions: 10 mM Hepes pH 7.5, 200 mM NaCl, 1 mM TCEP, 5% glycerol, 0.5 mM EDTA; 30 min on ice then 20 min at 25 °C; 6% native Tris-glycine PAGE, GelGreen stain

Substance	Kd [2] [nM]	also measured
recombinant His-tagged histone H3/H4 (from UniProt P68431 1-136; P62805 1-103) (complex)		stoichiometry N [1]: 4
His-SUMO-tagged TSPYL5-NLD (from UniProt Q86VY4 198-388) (domain or fragment)		stoichiometry N (TSPYL5 : 2 H3 : 2 H4) [1]: 2
80 bp DNA	500	
146 bp DNA	380	
